Reference: patent US20200088726A1

Molecular target: ESO 9V WT-A*02:01 pMHC (human)
Assay: BLI (OctetRED 384), pMHC immobilised on streptavidin biosensor, soluble 1G4 TCR in 1:2 dilution series from 24 µM; fit R² = 0.9992

A Kd of 5.12 µM was found for 1G4 TCR in this work.
